We go through 2 molecules from publication PMC3973309.

Data set [1] deals with T1, BfiI-C (C-terminal DNA-binding domain) (UniProt Q9F4C9 193-358).
T1 sequence: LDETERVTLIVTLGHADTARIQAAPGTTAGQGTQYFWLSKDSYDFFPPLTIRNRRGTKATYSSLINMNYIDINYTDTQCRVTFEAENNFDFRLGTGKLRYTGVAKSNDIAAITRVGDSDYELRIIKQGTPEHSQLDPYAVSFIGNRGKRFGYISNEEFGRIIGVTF
Put plainly: X-ray crystallography.

The next data set has as its target T2, BfiI R212A (UniProt Q9F4C9 1-358, R212A).
T2 sequence: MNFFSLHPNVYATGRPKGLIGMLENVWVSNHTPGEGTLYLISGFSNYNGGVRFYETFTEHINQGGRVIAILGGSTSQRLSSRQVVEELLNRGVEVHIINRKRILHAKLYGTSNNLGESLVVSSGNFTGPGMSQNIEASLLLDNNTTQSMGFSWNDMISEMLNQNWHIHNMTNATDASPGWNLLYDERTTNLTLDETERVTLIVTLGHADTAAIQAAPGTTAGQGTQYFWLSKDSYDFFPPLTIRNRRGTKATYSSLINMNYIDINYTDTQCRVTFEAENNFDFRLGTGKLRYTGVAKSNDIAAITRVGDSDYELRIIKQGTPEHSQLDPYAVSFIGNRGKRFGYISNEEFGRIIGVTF
Put plainly: EMSA. Background: Mobility shift assays separate free from complexed probe on a gel.

The target in another data set is T3, BfiI R291A (UniProt Q9F4C9 1-358, R291A).
T3 sequence: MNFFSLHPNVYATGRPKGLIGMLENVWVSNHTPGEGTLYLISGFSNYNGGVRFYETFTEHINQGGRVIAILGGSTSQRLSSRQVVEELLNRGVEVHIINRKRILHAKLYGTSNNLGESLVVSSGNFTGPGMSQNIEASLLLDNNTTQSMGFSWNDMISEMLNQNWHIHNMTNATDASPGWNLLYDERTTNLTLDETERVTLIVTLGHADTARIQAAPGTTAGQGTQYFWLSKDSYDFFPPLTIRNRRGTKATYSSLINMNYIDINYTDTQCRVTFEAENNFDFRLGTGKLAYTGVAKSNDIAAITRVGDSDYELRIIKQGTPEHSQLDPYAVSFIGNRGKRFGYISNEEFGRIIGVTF
Put plainly: EMSA.

Another data set deals with T4, BfiI R272A (UniProt Q9F4C9 1-358, R272A).
T4 sequence: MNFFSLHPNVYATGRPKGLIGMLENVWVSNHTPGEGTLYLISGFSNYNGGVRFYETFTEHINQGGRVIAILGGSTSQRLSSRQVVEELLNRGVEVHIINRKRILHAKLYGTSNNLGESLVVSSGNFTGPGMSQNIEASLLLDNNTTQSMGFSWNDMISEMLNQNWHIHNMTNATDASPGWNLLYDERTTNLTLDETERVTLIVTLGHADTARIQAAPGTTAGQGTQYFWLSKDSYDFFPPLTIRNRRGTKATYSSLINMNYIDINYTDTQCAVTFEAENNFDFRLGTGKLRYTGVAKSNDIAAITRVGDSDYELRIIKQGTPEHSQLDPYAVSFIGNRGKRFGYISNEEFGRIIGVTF
Put plainly: EMSA.

The next data set concerns the target T5, BfiI T225A (UniProt Q9F4C9 1-358, T225A).
T5 sequence: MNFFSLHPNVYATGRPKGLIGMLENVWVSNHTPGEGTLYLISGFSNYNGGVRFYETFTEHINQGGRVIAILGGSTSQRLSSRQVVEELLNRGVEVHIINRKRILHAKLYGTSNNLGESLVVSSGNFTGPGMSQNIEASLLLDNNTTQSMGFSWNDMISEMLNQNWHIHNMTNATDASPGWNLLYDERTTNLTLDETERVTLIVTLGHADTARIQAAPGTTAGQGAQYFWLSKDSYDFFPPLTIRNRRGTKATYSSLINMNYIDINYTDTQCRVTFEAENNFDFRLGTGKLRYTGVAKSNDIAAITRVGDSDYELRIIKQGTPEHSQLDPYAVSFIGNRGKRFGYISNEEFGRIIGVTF
As to the kind of experiment: EMSA.

The next data set addresses T6, BfiI Q223A (UniProt Q9F4C9 1-358, Q223A).
T6 sequence: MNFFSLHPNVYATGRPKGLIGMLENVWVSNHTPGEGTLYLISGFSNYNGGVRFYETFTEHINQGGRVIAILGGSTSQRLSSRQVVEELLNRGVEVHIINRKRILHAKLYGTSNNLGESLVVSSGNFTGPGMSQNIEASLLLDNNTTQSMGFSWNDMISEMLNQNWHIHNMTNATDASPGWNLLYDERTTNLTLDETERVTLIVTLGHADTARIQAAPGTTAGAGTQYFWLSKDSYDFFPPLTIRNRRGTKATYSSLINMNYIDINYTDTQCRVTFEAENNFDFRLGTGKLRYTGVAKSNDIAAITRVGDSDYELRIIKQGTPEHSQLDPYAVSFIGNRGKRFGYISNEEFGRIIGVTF
Put plainly: EMSA.

The target in another data set is T7, BfiI N245A (UniProt Q9F4C9 1-358, N245A).
T7 sequence: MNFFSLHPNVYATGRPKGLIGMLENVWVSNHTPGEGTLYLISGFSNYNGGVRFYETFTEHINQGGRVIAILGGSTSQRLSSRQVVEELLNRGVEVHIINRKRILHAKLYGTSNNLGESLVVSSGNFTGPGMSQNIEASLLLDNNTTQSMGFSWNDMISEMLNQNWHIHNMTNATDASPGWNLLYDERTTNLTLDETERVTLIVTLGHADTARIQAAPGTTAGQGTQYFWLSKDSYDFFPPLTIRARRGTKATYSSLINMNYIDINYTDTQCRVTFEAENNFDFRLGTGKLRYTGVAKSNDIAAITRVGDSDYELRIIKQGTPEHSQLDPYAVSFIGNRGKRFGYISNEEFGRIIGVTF
As to the kind of experiment: EMSA.

Another data set addresses T8, BfiI W229A (UniProt Q9F4C9 1-358, W229A).
T8 sequence: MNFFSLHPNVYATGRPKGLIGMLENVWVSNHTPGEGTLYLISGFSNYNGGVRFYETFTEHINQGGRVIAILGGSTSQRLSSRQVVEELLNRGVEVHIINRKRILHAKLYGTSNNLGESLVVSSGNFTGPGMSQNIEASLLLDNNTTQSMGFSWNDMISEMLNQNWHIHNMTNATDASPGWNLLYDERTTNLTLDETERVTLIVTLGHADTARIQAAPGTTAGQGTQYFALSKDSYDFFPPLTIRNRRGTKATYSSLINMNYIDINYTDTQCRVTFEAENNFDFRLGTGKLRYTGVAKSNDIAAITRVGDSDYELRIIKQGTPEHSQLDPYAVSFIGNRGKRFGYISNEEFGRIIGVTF
Put plainly: EMSA.

A further data set deals with T9, BfiI E276A (UniProt Q9F4C9 1-358, E276A).
T9 sequence: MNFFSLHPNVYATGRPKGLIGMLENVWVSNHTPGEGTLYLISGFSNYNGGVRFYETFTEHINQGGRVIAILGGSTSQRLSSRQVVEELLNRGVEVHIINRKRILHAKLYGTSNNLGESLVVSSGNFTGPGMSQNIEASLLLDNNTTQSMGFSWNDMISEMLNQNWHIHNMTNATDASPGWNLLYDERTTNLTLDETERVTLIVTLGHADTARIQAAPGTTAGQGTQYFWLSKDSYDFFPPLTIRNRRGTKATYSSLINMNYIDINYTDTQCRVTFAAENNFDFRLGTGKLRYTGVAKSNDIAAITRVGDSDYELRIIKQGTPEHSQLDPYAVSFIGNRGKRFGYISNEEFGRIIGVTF
As to the kind of experiment: EMSA.

Another data set addresses T10, BfiI Y227A (UniProt Q9F4C9 1-358, Y227A).
T10 sequence: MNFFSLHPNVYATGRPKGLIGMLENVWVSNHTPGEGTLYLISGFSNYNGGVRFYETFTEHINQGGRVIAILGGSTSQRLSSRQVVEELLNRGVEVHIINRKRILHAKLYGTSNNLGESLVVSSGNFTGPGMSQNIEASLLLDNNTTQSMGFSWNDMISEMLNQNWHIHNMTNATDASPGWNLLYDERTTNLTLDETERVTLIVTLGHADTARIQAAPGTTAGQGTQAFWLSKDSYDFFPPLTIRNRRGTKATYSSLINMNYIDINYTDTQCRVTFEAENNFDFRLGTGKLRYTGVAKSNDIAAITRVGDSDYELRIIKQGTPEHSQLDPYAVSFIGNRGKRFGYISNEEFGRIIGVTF
As to the kind of experiment: EMSA.

In another data set the target is T11, BfiI Q226A (UniProt Q9F4C9 1-358, Q226A).
T11 sequence: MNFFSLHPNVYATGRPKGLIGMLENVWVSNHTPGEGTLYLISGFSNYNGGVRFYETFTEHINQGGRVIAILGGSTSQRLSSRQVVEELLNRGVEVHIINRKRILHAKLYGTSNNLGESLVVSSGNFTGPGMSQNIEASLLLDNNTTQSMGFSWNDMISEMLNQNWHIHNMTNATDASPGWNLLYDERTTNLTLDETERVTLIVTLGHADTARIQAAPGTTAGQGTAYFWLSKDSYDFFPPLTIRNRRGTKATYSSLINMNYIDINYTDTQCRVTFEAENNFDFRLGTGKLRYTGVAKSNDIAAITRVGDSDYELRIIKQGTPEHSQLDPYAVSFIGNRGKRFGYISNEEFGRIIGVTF
Put plainly: EMSA.

In the next data set the target is T12, BfiI K250A (UniProt Q9F4C9 1-358, K250A).
T12 sequence: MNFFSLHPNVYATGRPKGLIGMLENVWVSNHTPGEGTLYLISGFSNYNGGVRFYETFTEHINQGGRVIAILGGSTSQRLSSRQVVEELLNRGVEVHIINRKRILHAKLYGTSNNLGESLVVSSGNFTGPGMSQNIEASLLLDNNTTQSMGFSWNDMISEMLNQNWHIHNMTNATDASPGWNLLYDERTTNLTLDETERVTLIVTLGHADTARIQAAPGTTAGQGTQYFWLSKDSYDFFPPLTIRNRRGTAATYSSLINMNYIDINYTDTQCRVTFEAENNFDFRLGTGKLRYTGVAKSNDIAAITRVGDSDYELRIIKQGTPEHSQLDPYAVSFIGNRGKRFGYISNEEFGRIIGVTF
As to the kind of experiment: EMSA.

B1: 12/12 (dsDNA)
DNA 1: AGCACTGGGTCG
DNA 2: CGACCCAGTGCT
Turning to B1, the binding result in [1] was “binds”.

B2: 16SP (dsDNA)
DNA 1: AGCGTAGCACTGGGCT
DNA 2: AGCCCAGTGCTACGCT
Turning to B2, the binding signal in the data set with BfiI R212A was 2 % of WT KA; in the data set with BfiI R291A it was 2 % of WT KA; in the data set with BfiI R272A, 1 % of WT KA; with BfiI T225A, 10 % of WT KA; in the data set with BfiI Q223A it was 100 % of WT KA; with BfiI N245A it was 100 % of WT KA. Also, the binding signal with BfiI W229A was 1 % of WT KA; with BfiI E276A, 10 % of WT KA; with BfiI Y227A it was 5 % of WT KA; with BfiI Q226A it was 50 % of WT KA; with BfiI K250A, 2 % of WT KA.
